Assay results from publication PMC5801413.

What was measured:
Human glu-plasminogen = assay: ELISA; details: 5 μg/ml immobilized CbiA protein, 10 μg/ml plasminogen, polyclonal antibody 1:1,000, read off a plot
[1] = target: His6-tagged CbiA of B. miyamotoi (B. miyamotoi); assay: ELISA; proteins (5 μg/ml) immobilised, plasminogen in the presence of increasing concentrations of NaBr; binding without NaBr set to 100%
[2] = target: His6-tagged CbiA of B. miyamotoi (B. miyamotoi); assay: ELISA; CbiA (5 μg/ml) immobilised, increasing concentrations of plasminogen; non-linear regression, one-site specific binding model; apparent dissociation constant
[3] = target: His6-tagged CbiA of B. miyamotoi (B. miyamotoi); assay: ELISA; proteins (5 μg/ml) immobilised, plasminogen in the presence of increasing concentrations of the lysine analog tranexamic acid; binding without tranexamic acid set to 100%

Substance | response (Absorbance at 490 nm) (Human glu-plasminogen; parent: est. 0.72) | response (Absorbance at 490 nm) (Human glu-plasminogen; parent: est. 0.78) | also measured
His6-tagged CbiA of B. miyamotoi K154A; K162A; K188A | 1 | – | –
His6-tagged CbiA of B. miyamotoi K162A | 1 | – | –
His6-tagged CbiA of B. miyamotoi R185A | – | 0.81 | –
His6-tagged CbiA of B. miyamotoi K153A | 1.1 | – | –
His6-tagged CbiA of B. miyamotoi K188A | 0.81 | – | –
His6-tagged CbiA of B. miyamotoi K154A; K162A | 0.9 | – | –
His6-tagged CbiA of B. miyamotoi K154A; R156A | – | 0.58 | –
His6-tagged CbiA of B. miyamotoi K154A | 0.83 | – | –
His6-tagged CbiA of B. miyamotoi K153A; K154A; K162A; K188A | 1 | – | –
His6-tagged CbiA of B. miyamotoi R163A | – | 0.74 | –
His6-tagged CbiA of B. miyamotoi R145A | – | 0.66 | –
Human glu-plasminogen (natural protein) | – | – | percent of binding at 250 mM NaBr (without NaBr = 100%) [1]: 43%; Kd [2]: 347 nM; percent decrease of binding with 0.1 mM tranexamic acid [3]: > 17%; percent of binding at 10 mM tranexamic acid (without tranexamic acid = 100%) [3]: 48%
His6-tagged CbiA of B. miyamotoi R156A | – | 0.6 | –
